To fix the notation:
B1: Azoarcus group I ribozyme (parent)
chain: GUGCCUUGCGCCGGGAAACCACGCAAGGGAUGGUGUCAAAUUCGGCGAAACCUAAGCGCCCGCCCGGGCGUAUGGCAACGCCGAGCCAAGCUUCGGCGCCUGCGCCGAUGAAGGUGUAGAGACUAGACGGCACCCACCUAAGGCAAACGCUAUGGUGAAGGCAUAGUCCAGGGAGUGGCGAAAGUCACACAAACCGG

The variants in this series derive from B1. Nature of the series: reverse-splicing fitness (ratio to wild type); higher = more active; in vitro selection; Mg2+ level not given. In short, it runs like this: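 An in vitro group I ribozyme library with randomized positions was T7-transcribed and gel-purified. In triplicate, 10 pmol RNA in EPPS pH 7.5 was reacted with 50 pmoles of a 30-nt RNA substrate for 1 h at 37 °C across several added MgCl2 levels (1–48 mM), then stopped with EDTA. Products were reverse transcribed from a substrate-complementary primer, PCR-amplified and sequenced (HiSeq 4000). Fitness is a variant's read proportion after selection over that before, normalised to wild type.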
C82G A111C A120C A145U C169A U176A: the reverse-splicing fitness turned out to be 0.0143.

On to C82G A111C A120G A145C C150G C169G U176A, for which the reverse-splicing fitness was 0.00837.

With C82G A111C A120G A145C C150G C169G U176C, the reverse-splicing fitness was found to be 0.00726.

Take C82G A111C A120G A145C C150G C169G U176G: the reverse-splicing fitness worked out at 0.00499.

Regarding C82G A111C A120C A145U C150U C169A U176C, the reverse-splicing fitness turned out to be 0.0124.

Turning to C82G A111C A120C A145U C150U C169A U176A, the reverse-splicing fitness worked out at 0.0138.

Turning to C82G A111C A120C A145U C150U C169A U176G, the reverse-splicing fitness was 0.00748.

Consider C82G A111C A120C A145C C150A U176A, for which the reverse-splicing fitness stood at 0.00989.

In the case of C82G A111C A120C A145C C150A U176G, the reverse-splicing fitness is 0.00623.

With C82G A111C A120C A145C C150A U176C, the reverse-splicing fitness worked out at 0.0115.

Regarding C82G A111C A120C A145G C150U U176A, the reverse-splicing fitness is 0.0138.

On to C82G A111C A120C A145G C150U U176C, for which the reverse-splicing fitness came out at 0.0215.

C82G A111C A120C A145G C150U U176G: the reverse-splicing fitness amounted to 0.00788.

On to C82G A111C A120C C150G C169U U176C, for which the reverse-splicing fitness stood at 0.0107.

Regarding C82G A111C A120C C150G C169U U176A, the reverse-splicing fitness was 0.00786.

In the case of C82G A111C A120C C150G C169U U176G, the reverse-splicing fitness is 0.00751.

As for C82G A111C A120C A145U C150G C169G U176A, the reverse-splicing fitness was 0.0088.

On to C82G A111C A120C A145U C150G C169G U176C, for which the reverse-splicing fitness is 0.00759.

As to C82G A111C A120C A145U C150G C169G U176G, the reverse-splicing fitness is 0.00673.

In the case of C82G A111C A120C A145C C169A, the reverse-splicing fitness was 0.00657.

As to C82G A111C A120C A145C C169G, the reverse-splicing fitness was determined as 0.00843.

Regarding C82G A111C A120C A145C C169U, the reverse-splicing fitness turned out to be 0.0151.

As for C82G A111C, the reverse-splicing fitness was 0.281.

Take C82G A111C A120C A145U C150A C169A: the reverse-splicing fitness came to 0.00835.

C82G A111C A120C A145U C150A C169G: the reverse-splicing fitness came to 0.0083.

Turning to C82G A111C A120C A145U C150A C169U, the reverse-splicing fitness was determined as 0.011.

Take C82G A111C A120C A145C C169A U176G: the reverse-splicing fitness is 0.0064.

Take C82G A111C A120C A145C C169A U176C: the reverse-splicing fitness was 0.0118.

For the variant C82G A111C A120C A145C C169A U176A, the reverse-splicing fitness is 0.0175.

Regarding C82G A111C A120G A145C C150G U176A, the reverse-splicing fitness is 0.00787.

Regarding C82G A111C A120G A145C C150G U176C, the reverse-splicing fitness was 0.0129.

For C82G A111C A120G A145C C150G U176G, the reverse-splicing fitness was found to be 0.00269.

With C82G A111C A120C A145C C150G C169U U176G, the reverse-splicing fitness was determined as 0.00572.

Take C82G A111C A120C A145C C150G C169U U176A: the reverse-splicing fitness worked out at 0.00824.

C82G A111C A120C A145C C150G C169U U176C: the reverse-splicing fitness came to 0.0123.

Turning to C82G A111C A120C A145C C150A C169A U176A, the reverse-splicing fitness stood at 0.0156.

For C82G A111C A120C A145C C150A C169A U176C, the reverse-splicing fitness was found to be 0.00933.

Consider C82G A111C A120C A145C C150A C169A U176G, for which the reverse-splicing fitness was found to be 0.00693.

With C82G A111C A120G A145C C150A C169G U176G, the reverse-splicing fitness stood at 0.00529.

For C82G A111C A120G A145C C150A C169G U176C, the reverse-splicing fitness stood at 0.0158.

Regarding C82G A111C A120G A145C C150A C169G U176A, the reverse-splicing fitness is 0.0248.

For the variant C82G A111C A120C C150U, the reverse-splicing fitness came to 0.0277.

Take C82G A111C A120C C150A: the reverse-splicing fitness came to 0.0114.

Consider C82G A111C A120C C150G, for which the reverse-splicing fitness is 0.00951.

Turning to C82G A111C A120C A145G C150U C169G U176A, the reverse-splicing fitness stood at 0.0122.

In the case of C82G A111C A120C A145G C150U C169G U176G, the reverse-splicing fitness stood at 0.00699.

For C82G A111C A120C A145G C150U C169G U176C, the reverse-splicing fitness stood at 0.0162.

Regarding C82A C150U C169G, the reverse-splicing fitness stood at 0.0106.

For C82A C150U C169U, the reverse-splicing fitness turned out to be 0.0139.

C82A C150U C169A: the reverse-splicing fitness was 0.0105.

Consider C82G A111C A120C A145G C150U C169U, for which the reverse-splicing fitness is 0.0124.

With C82G A111C A120C A145G C150U C169A, the reverse-splicing fitness was 0.0101.

As to C82G A111C A120C A145G C150U C169G, the reverse-splicing fitness was 0.00759.

Consider C82G A111C A120G, for which the reverse-splicing fitness is 0.0185.

On to C82G A111C A120C, for which the reverse-splicing fitness is 0.0556.

C82G A111C A120C A145G C150A C169U U176C: the reverse-splicing fitness was determined as 0.0139.

Take C82G A111C A120C A145G C150A C169U U176G: the reverse-splicing fitness was 0.00795.

As for C82G A111C A120C A145G C150A C169U U176A, the reverse-splicing fitness came to 0.0157.

As for C82G A111C A120C A145C C150U C169U U176A, the reverse-splicing fitness came out at 0.0131.

Turning to C82G A111C A120C A145C C150U C169U U176C, the reverse-splicing fitness turned out to be 0.0133.

In the case of C82G A111C A120C A145C C150U C169U U176G, the reverse-splicing fitness was determined as 0.0064.

As to C82G A111C A120C A145U C169G U176G, the reverse-splicing fitness was found to be 0.00713.

In the case of C82G A111C A120C A145U C169G U176A, the reverse-splicing fitness was found to be 0.0141.

Regarding C82G A111C A120C A145U C169G U176C, the reverse-splicing fitness turned out to be 0.0177.

As to C82G A111C A120G A145C C150A C169U U176C, the reverse-splicing fitness stood at 0.00999.

With C82G A111C A120G A145C C150A C169U U176G, the reverse-splicing fitness is 0.0047.

Turning to C82G A111C A120G A145C C150A C169U U176A, the reverse-splicing fitness amounted to 0.0151.

Turning to C82G A111C A120C A145C C169G U176G, the reverse-splicing fitness is 0.0061.

For C82G A111C A120C A145C C169G U176A, the reverse-splicing fitness is 0.0259.

In the case of C82G A111C A120C A145C C169G U176C, the reverse-splicing fitness was determined as 0.0205.

C82G A111C A120C A145C C150U C169G: the reverse-splicing fitness was 0.00697.

C82G A111C A120C A145C C150U C169A: the reverse-splicing fitness is 0.00728.

Take C82G A111C A120C A145C C150U C169U: the reverse-splicing fitness is 0.011.

C82G A111C A120C C150U U176G: the reverse-splicing fitness was 0.00767.

Regarding C82G A111C A120C C150U U176A, the reverse-splicing fitness is 0.0157.

Take C82G A111C A120C C150U U176C: the reverse-splicing fitness amounted to 0.0226.

With C82G A111C A120C A145G C150U C169U U176C, the reverse-splicing fitness is 0.0131.

In the case of C82G A111C A120C A145G C150U C169U U176G, the reverse-splicing fitness was 0.00732.

As to C82G A111C A120C A145G C150U C169U U176A, the reverse-splicing fitness is 0.0156.

Take C82G A111C A120C C150A U176C: the reverse-splicing fitness is 0.0203.

Consider C82G A111C A120C C150A U176G, for which the reverse-splicing fitness came to 0.00842.

With C82G A111C A120C C150A U176A, the reverse-splicing fitness turned out to be 0.0125.

For C82G A111C A120C A145U C150U C169U U176G, the reverse-splicing fitness was determined as 0.00674.

As to C82G A111C A120C A145U C150U C169U U176C, the reverse-splicing fitness is 0.0153.

The record behind these values is the RNAGym collection of RNA variant scans (doi:10.1093/molbev/msab373).
